Drawing on paper PMC8809517, “Cofactor-independent RNA editing by a synthetic S-type PPR protein”, this text covers Kd for four molecules.

Series [1] deals with T1, GFP-9S library array, motif 4 ND N98A;D124Y (synthetic construct, N98A;D124Y).
T1 chain: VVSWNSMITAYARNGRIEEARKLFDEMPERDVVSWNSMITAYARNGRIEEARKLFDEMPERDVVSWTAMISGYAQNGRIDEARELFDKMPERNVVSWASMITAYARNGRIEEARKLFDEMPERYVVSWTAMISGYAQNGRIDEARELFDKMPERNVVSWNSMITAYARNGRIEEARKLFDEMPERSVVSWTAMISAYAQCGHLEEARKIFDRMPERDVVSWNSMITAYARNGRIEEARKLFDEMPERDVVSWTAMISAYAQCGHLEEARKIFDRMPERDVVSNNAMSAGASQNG
Put plainly: high-throughput RNA pulldown from lysate on Ni-NTA beads; HRP: 50 mM Tris pH 8, 150 mM NaCl, 1 mM beta-mercaptoethanol, 50 ug/ml BSA, 3 ug/ml yeast RNA, 0.5% heparin; ITC and FP: Tris pH 8, 200 mM KCl, 5% glycerol; MST: 50 mM Tris pH 8, 200 mM NaCl, 1 mM DTT, BSA, heparin, 0.05% Tween 20. The conditions noted are these: tags: N-terminal His-eGFP.

For a further series, the target named is T2, 9S-E2 (synthetic construct).
T2 chain: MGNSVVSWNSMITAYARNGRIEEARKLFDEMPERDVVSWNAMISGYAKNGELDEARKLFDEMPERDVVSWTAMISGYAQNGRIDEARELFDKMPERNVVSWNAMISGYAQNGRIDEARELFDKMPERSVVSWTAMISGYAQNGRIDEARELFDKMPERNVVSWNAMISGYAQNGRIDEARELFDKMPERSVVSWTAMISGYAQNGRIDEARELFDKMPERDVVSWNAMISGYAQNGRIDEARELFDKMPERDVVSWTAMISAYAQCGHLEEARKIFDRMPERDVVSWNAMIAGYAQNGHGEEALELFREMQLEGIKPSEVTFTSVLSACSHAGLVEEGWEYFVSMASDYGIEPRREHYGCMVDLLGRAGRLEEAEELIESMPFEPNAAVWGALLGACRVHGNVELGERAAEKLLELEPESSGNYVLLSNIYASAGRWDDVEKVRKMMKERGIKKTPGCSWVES
Put plainly: microscale thermophoresis; HRP: 50 mM Tris pH 8, 150 mM NaCl, 1 mM beta-mercaptoethanol, 50 ug/ml BSA, 3 ug/ml yeast RNA, 0.5% heparin; ITC and FP: Tris pH 8, 200 mM KCl, 5% glycerol; MST: 50 mM Tris pH 8, 200 mM NaCl, 1 mM DTT, BSA, heparin, 0.05% Tween 20. The conditions noted are these: protein: recombinant; tags: N-terminal TRX-His; label: 5' Cy5. On the technique in general: In MST a laser heats a spot of the sample, and binding alters the fluorescence response.

For a further series, the target named is T3, 9S (synthetic construct).
T3 chain: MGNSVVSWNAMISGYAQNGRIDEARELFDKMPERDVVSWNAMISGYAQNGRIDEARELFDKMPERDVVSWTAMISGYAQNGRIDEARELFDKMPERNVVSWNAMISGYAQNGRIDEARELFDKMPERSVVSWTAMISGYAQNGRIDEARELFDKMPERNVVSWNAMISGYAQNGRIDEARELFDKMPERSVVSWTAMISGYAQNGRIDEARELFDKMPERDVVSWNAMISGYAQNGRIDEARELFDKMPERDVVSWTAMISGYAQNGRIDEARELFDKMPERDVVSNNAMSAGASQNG
Nature of the series: high-throughput RNA pulldown on Ni-NTA beads; HRP: 50 mM Tris pH 8, 150 mM NaCl, 1 mM beta-mercaptoethanol, 50 ug/ml BSA, 3 ug/ml yeast RNA, 0.5% heparin; ITC and FP: Tris pH 8, 200 mM KCl, 5% glycerol; MST: 50 mM Tris pH 8, 200 mM NaCl, 1 mM DTT, BSA, heparin, 0.05% Tween 20. The conditions noted are these: protein: recombinant; tags: N-terminal His-eGFP; label: 5' Cy5.

Another series concerns the target T4, 9S-S2 PPR (synthetic construct).
T4 chain: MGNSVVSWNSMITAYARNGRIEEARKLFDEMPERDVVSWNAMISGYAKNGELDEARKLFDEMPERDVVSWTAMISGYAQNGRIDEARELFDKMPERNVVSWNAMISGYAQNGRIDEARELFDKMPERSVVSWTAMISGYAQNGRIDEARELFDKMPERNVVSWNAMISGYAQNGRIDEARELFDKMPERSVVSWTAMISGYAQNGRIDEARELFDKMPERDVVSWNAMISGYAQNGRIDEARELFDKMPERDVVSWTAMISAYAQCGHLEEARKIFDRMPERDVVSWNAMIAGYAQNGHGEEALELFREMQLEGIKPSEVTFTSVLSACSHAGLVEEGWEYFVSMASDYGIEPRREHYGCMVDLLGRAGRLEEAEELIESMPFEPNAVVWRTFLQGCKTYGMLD
The description is as above. The settings on record: protein: recombinant; tags: N-terminal TRX-His; label: 5' Cy5.

Another series has as its target T5, 9P-S2 (synthetic construct).
T5 chain: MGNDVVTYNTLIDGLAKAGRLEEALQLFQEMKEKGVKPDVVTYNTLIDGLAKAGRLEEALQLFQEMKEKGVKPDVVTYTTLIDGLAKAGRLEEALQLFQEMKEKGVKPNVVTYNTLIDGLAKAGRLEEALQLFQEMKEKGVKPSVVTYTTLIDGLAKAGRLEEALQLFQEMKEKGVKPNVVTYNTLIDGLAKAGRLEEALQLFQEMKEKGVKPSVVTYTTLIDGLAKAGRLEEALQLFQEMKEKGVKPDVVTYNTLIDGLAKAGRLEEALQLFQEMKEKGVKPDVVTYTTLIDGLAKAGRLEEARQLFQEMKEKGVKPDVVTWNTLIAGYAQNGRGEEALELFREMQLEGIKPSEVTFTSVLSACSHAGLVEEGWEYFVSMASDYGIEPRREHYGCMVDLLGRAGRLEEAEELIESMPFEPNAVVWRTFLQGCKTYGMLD
The series is described as above. The settings on record: protein: recombinant; tags: N-terminal TRX-His; label: 5' Cy5.

As usually defined, the Kd is the concentration at which binding is half-saturated. Regarding AUUACACGUGA (ssRNA) [Cy5-rpoA], the Kd was 82.5 nM in series [1] (label: 5' Cy5); 6.8 nM in the series with 9S-E2; 12 nM with 9S; 6.4 nM in the series with 9S-S2 PPR; 68 nM with 9P-S2.
In turn, AUUAUACGUGA (ssRNA) [IR-rpoA-U] gave a Kd in series [1] (label: 5' IRDye 800CW) of 175 nM.
AUUAGACGUGA (ssRNA) [Cy5-rpoA-G] yielded a Kd in series [1] (label: 5' Cy5) of 68.5 nM.
The molecule AUUAAACGUGA (ssRNA) [IR-rpoA-A] had a Kd in series [1] (label: 5' IRDye 800CW) of 172 nM.
